Data on one substance can be found in article PMC3125165.

This test deals with Escherichia coli FtsZ (Escherichia coli) (UniProt P0A9A6).

Turning to “Escherichia coli FtsZ (from UniProt P0A9A6 1-383) (natural protein)”, the Pi released by GTP hydrolysis (MESG/PNP phosphate assay), endpoint as percent of the theoretical maximum, pH 6.0, 0.2 mM GTP, 11 uM FtsZ turned out to be 90%; the Pi released by GTP hydrolysis (MESG/PNP phosphate assay), endpoint as percent of the theoretical maximum, pH 6.5, 0.2 mM GTP, 11 uM FtsZ came to 96%; the Pi released by GTP hydrolysis (MESG/PNP phosphate assay), endpoint as percent of the theoretical maximum, pH 7.0, 0.2 mM GTP, 11 uM FtsZ came out at 87%.
